Data as given in patent US20210024620A1.
Each block holds one substance with its values, some of them ahead of it.

Experiments:
[1] = target: biotinylated human FcRn (human) (UniProt P55899); experiment: Biacore, pH 6.0
rat FcRn (rat) [2] = target: rat FcRn (rat) (UniProt P13599); experiment: Biacore, pH 6.0
[3] = target: biotinylated human FcRn (human) (UniProt P55899); experiment: Biacore SPR, pH 7.4
rat FcRn (rat) [4] = target: rat FcRn (rat) (UniProt P13599); experiment: Biacore SPR, pH 7.4
[5] = target: biotinylated human FcRn (human) (UniProt P55899); experiment: Biacore SPR, pH 6.0
rat FcRn (rat) [6] = target: rat FcRn (rat) (UniProt P13599); experiment: Biacore SPR, pH 6.0
[7] = target: biotinylated human FcRn (human) (UniProt P55899); experiment: Biacore SPR, pH 6.0; remark: listed apart in the source
[8] = target: biotinylated human FcRn (p51 subunit residues 24-297 with C-terminal Avi-tag; beta2-microglobulin residues 21-119) (human) (UniProt P55899); experiment: Biacore SPR, pH 6.0
rat FcRn (rat) [9] = target: rat FcRn (rat) (UniProt P13599); experiment: Biacore SPR, pH 6.0; remark: listed apart in the source
[10] = target: biotinylated human FcRn (human) (UniProt P55899); experiment: Biacore, pH 6.0, apparent KD
rat FcRn (rat) [11] = target: rat FcRn (rat) (UniProt P13599); experiment: Biacore, pH 6.0, apparent KD
[12] = target: biotinylated human FcRn (p51 subunit residues 24-297 with C-terminal Avi-tag; beta2-microglobulin residues 21-119) (human) (UniProt P55899); experiment: Biacore SPR, pH 7.4, steady state
[13] = target: biotinylated human FcRn (human) (UniProt P55899); experiment: Biacore, pH 7.4, steady state response
rat FcRn (rat) [14] = target: rat FcRn (rat) (UniProt P13599); experiment: Biacore, pH 7.4, steady state response
[15] = target: Human CD16a (FcγRIIIa V158) with C-terminal HPC4 tag (human) (UniProt P08637); experiment: Biacore SPR, FcγRIIIa-V158 captured, pH 7.4
Chain of Human CD16a (FcγRIIIa V158) with C-terminal HPC4 tag (human) (P08637 17-208 F176V): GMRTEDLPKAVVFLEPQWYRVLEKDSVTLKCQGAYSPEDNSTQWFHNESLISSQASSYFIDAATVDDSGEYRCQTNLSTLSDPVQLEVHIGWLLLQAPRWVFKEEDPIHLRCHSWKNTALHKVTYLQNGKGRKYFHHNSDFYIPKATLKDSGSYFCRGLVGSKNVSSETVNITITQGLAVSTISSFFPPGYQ

[16] = target: Human CD16a (FcγRIIIa V158) with C-terminal HPC4 tag (human) (UniProt P08637); experiment: Biacore, FcγRIIIa V158 captured, steady-state fit, apparent KD
[17] = target: biotinylated human FcRn (p51 subunit residues 24-297 with C-terminal Avi-tag; beta2-microglobulin residues 21-119) (human) (UniProt P55899); experiment: Biacore; affinity at pH 6.0 (M^-1) over steady state RU at pH 7.4
[18] = target: FcRn immobilised on the FcRn affinity column (biotinylated cynoFcRn in one experiment, biotinylated hFcRn in another); experiment: FcRn affinity chromatography, linear pH gradient; species of the immobilised FcRn not given
[19] = target: biotinylated cynomolgus FcRn (cynomolgus) (UniProt Q8SPV9); experiment: Biacore, pH 7.4, steady state response
mouse FcRn (mouse) = mouse FcRn (mouse) (UniProt Q61559); experiment: Biacore, pH 7.4, steady state response
[20] = target: Human CD16a (FcγRIIIa V158) with C-terminal HPC4 tag (human) (UniProt P08637); experiment: Biacore, FcγRIIIa V158 captured, relative to WT of the same backbone
[21] = target: biotinylated human FcRn (human) (UniProt P55899); experiment: Biacore, biotin-captured hFcRn, pH 6.0
[22] = target: biotinylated human FcRn (human) (UniProt P55899); experiment: Biacore, biotin-captured hFcRn, pH 8.0
[23] = target: biotinylated cynomolgus FcRn (cynomolgus) (UniProt Q8SPV9); experiment: Biacore, biotin-captured cFcRn, pH 6.0
[24] = target: biotinylated cynomolgus FcRn (cynomolgus) (UniProt Q8SPV9); experiment: Biacore, biotin-captured cFcRn, pH 7.4
[25] = target: biotinylated cynomolgus FcRn (cynomolgus) (UniProt Q8SPV9); experiment: Biacore, biotin-captured cFcRn, pH 8.0
[26] = target: biotinylated human FcRn (human) (UniProt P55899); experiment: Biacore, biotin-captured hFcRn, pH 7.4, 1000 nM antibody
[27] = target: biotinylated human FcRn (human) (UniProt P55899); experiment: Biacore, biotin-captured hFcRn, pH 8.0, 1000 nM antibody
[28] = target: biotinylated human FcRn (human) (UniProt P55899); experiment: Biacore, biotin-captured hFcRn, pH 9.0, 1000 nM antibody
[29] = target: biotinylated cynomolgus FcRn (cynomolgus) (UniProt Q8SPV9); experiment: Biacore, biotin-captured cFcRn, pH 7.4, 1000 nM antibody
[30] = target: biotinylated cynomolgus FcRn (cynomolgus) (UniProt Q8SPV9); experiment: Biacore, biotin-captured cFcRn, pH 8.0, 1000 nM antibody
[31] = target: biotinylated cynomolgus FcRn (cynomolgus) (UniProt Q8SPV9); experiment: Biacore, biotin-captured cFcRn, pH 9.0, 1000 nM antibody
[32] = target: Human CD16a (FcγRIIIa residues 17-208 with C-terminal HPC4 tag and valine at position 158) (human) (UniProt P08637); experiment: Biacore SPR, HPC4-tagged FcγRIIIa-V158 captured by anti-HPC4, pH 7.4
Chain of Human CD16a (FcγRIIIa residues 17-208 with C-terminal HPC4 tag and valine at position 158) (human) (P08637 17-208 F176V): as above

[33] = target: biotinylated human FcRn (human) (UniProt P55899); experiment: Biacore, biotin-captured hFcRn, pH 7.4
[34] = target: biotinylated human FcRn (p51 subunit residues 24-297 with C-terminal Avi-tag; beta2-microglobulin residues 21-119) (human) (UniProt P55899); experiment: Biacore; inverse ratio (RU at pH 7.4 over affinity at pH 6.0)
[35] = target: biotinylated human FcRn (human) (UniProt P55899); experiment: Biacore SPR, pH 7.4; remark: listed apart in the source
[36] = target: biotinylated human FcRn (human) (UniProt P55899); experiment: Biacore SPR, pH 7.4, 1000 nM antibody

Chain of rat FcRn (rat) (P13599 23-298 limits assumed, chain 1 of 2): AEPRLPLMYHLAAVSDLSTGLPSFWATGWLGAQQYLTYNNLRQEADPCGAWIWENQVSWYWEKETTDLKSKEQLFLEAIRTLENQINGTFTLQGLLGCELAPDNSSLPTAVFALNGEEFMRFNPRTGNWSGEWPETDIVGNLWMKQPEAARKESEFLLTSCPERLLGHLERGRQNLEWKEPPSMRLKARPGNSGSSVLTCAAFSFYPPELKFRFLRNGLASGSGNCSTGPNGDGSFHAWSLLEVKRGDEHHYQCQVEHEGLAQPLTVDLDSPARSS
Chain of rat FcRn (rat) (P07151 21-119 limits assumed, chain 2 of 2, further chain): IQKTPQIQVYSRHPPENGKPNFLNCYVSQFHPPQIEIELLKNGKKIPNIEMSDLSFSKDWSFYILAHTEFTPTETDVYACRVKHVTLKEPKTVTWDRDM

Substance: mAb1 MDQN (T256D/T307Q) (antibody)
koff [1]: 0.087 s⁻¹
kon [1]: 380000 M⁻¹ s⁻¹
koff (rat FcRn (rat) [2]): 0.0013 s⁻¹
kon (rat FcRn (rat) [2]): 13000 M⁻¹ s⁻¹
Steady State RU [3]: 10.7 RU
Steady State RU (rat FcRn (rat) [4]): 39.1 RU
koff [5]: 0.087 s⁻¹
kon [5]: 380000 M⁻¹ s⁻¹
Kd (rat FcRn (rat) [6]): 9.5 nM
Kd [7]: 232 nM
koff [7]: 0.0872 s⁻¹
kon [7]: 376000 M⁻¹ s⁻¹
Ka [8]: 4.31e+06 M⁻¹
Kd (rat FcRn (rat) [9]): 9.54 nM
koff (rat FcRn (rat) [9]): 0.00127 s⁻¹
kon (rat FcRn (rat) [9]): 133000 M⁻¹ s⁻¹
Kd [10]: 232 nM
Kd (rat FcRn (rat) [11]): 9.5 nM
Steady State Binding, pH 7.4 (RU) [12]: 10.7 RU
Steady State RU [13]: 10.7 RU
Steady State RU (rat FcRn (rat) [14]): 39.1 RU
FcγRIIIa V158 affinity fold change relative to WT [15]: 0.73 fold
Kd [16]: 600 nM
Ratio (pH 6.0/pH 7.4) [17]: 403000
FcRn affinity column elution pH [18]: 7.92 pH

Substance: mAb2 DW (T256D/T307W) (antibody)
Steady State RU [19]: 15 RU
Steady State RU [13]: 18 RU
Steady State RU (mouse FcRn (mouse)): 257 RU
FcγRIIIa V158 Affinity Fold Change (fold relative to WT) [20]: 1.15

Substance: mAb1 MDWY (T256D/T307W/N434Y) (antibody)
Ka [8]: 8.4e+07 M⁻¹
Steady State Binding, pH 7.4 (RU) [12]: 59 RU
Kd [21]: 18 nM
koff [21]: 0.0123 s⁻¹
kon [21]: 700000 M⁻¹ s⁻¹
Kd [33]: 101 nM
koff [33]: 0.05 s⁻¹
kon [33]: 500000 M⁻¹ s⁻¹
Kd [22]: 2700 nM
koff [22]: 0.54 s⁻¹
kon [22]: 260000 M⁻¹ s⁻¹
Kd [23]: 15 nM
koff [23]: 0.0103 s⁻¹
kon [23]: 700000 M⁻¹ s⁻¹
Kd [24]: 85 nM
koff [24]: 0.029 s⁻¹
kon [24]: 350000 M⁻¹ s⁻¹
Kd [25]: 1200 nM
koff [25]: 0.69 s⁻¹
kon [25]: 620000 M⁻¹ s⁻¹
Ratio (pH 6.0/pH 7.4) [34]: 7.02e-07
Steady State RU [26]: 125 RU
Steady State RU [27]: 145 RU
Steady State RU [28]: 0.7 RU
Steady State RU [29]: 165 RU
Steady State RU [30]: 197 RU
Steady State RU [31]: 1.3 RU
Ratio (pH 6.0/pH 7.4) [17]: 1.42e+06
FcγRIIIa Binding Steady State RU [32]: 211 RU

Substance: mAb1 MDWN (T256D/T307W) (antibody)
koff [1]: 0.089 s⁻¹
kon [1]: 530000 M⁻¹ s⁻¹
koff (rat FcRn (rat) [2]): 0.0013 s⁻¹
kon (rat FcRn (rat) [2]): 16000 M⁻¹ s⁻¹
Steady State RU [3]: 12.2 RU
Steady State RU (rat FcRn (rat) [4]): 42.1 RU
koff [5]: 0.089 s⁻¹
kon [5]: 530000 M⁻¹ s⁻¹
Kd (rat FcRn (rat) [6]): 8.2 nM
Kd [7]: 169 nM
koff [7]: 0.0892 s⁻¹
kon [7]: 529000 M⁻¹ s⁻¹
Ka [8]: 5.92e+06 M⁻¹
Kd (rat FcRn (rat) [9]): 8.24 nM
koff (rat FcRn (rat) [9]): 0.00129 s⁻¹
kon (rat FcRn (rat) [9]): 157000 M⁻¹ s⁻¹
Kd [10]: 169 nM
Kd (rat FcRn (rat) [11]): 8.2 nM
Steady State Binding, pH 7.4 (RU) [12]: 12.2 RU
Steady State RU [13]: 12.2 RU
Steady State RU (rat FcRn (rat) [14]): 42.1 RU
FcγRIIIa V158 affinity fold change relative to WT [15]: 0.89 fold
Ratio (pH 7.4/pH 6.0) [34]: 2.06e-06
Kd [16]: 512 nM
Ratio (pH 6.0/pH 7.4) [17]: 485000
FcRn affinity column elution pH [18]: 7.92 pH

Continued, values first:

Steady State RU [19]: 11 RU
Steady State RU [13]: 14 RU
Steady State RU (mouse FcRn (mouse)): 248 RU
FcγRIIIa V158 Affinity Fold Change (fold relative to WT) [20]: 1.05
Substance: mAb2 DQ (T256D/T307Q) (antibody)

Ka [8]: 2.66e+08 M⁻¹
Steady State Binding, pH 7.4 (RU) [12]: 88.5 RU
Kd [21]: 5.2 nM
Kd [22]: 700 nM
Kd [23]: 3.2 nM
Kd [24]: 49 nM
Kd [25]: 1500 nM
Steady State RU [26]: 166 RU
Steady State RU [27]: 281 RU
Steady State RU [28]: 10.4 RU
Steady State RU [29]: 178 RU
Steady State RU [30]: 354 RU
Steady State RU [31]: 16 RU
FcγRIIIa Binding Steady State RU [32]: 136 RU
Substance: mAb1 YDWY (M252Y/T256D/T307W/N434Y) (antibody)

koff [1]: 0.14 s⁻¹
kon [1]: 84000 M⁻¹ s⁻¹
Kd [7]: 1780 nM
koff [7]: 0.144 s⁻¹
kon [7]: 83700 M⁻¹ s⁻¹
Ka [8]: 562000 M⁻¹
Steady State RU [35]: 13.1 RU
Kd [10]: 1780 nM
Steady State Binding, pH 7.4 (RU) [12]: 13.9 RU
Steady State RU [36]: 13.9 RU
Steady State RU [13]: 13.9 RU
Ratio (pH 6.0/pH 7.4) [34]: 2.47e-05
Ratio (pH 6.0/pH 7.4) [17]: 40400
Substance: mAb1 AAA (T307A/E380A/N434A) (antibody; other documents disagree on this pair)

Kd [21]: 13 nM
koff [21]: 0.0103 s⁻¹
kon [21]: 810000 M⁻¹ s⁻¹
FcγRIIIa Binding Steady State RU [32]: 163 RU
Substance: mAb1 YEWF (M252Y/T256E/T307W/N434F) (antibody)
